Measurements published in the DeepSol protein solubility set.

assay: soluble on expression in E. coli; label from the status in PepcDB or PDB records

Row | Sequence | soluble on expression in E. coli
1 | SLIKKVKIKKFNGRDFYDMEDYVAVEESYNIFINGEFVKSLSMSPNFLNEFAVGFAISEGFLNKIDKVEVDKNNINIFGEKNDREIKNNKNNKEIKIDIEIIKKIISYEIKAKYWEITGSFHWASMFDLKGNSIIFVEDIGRHNAVDKVIGYAILNNYNLNKLILRYSGRIPSDIVKKAINSGLNIIISKSPPTDKAIELAEENNILLIGFARNGKFNIYTSGRLWEE | soluble
2 | SLIMRYADSGLCGTVSQNMADARTRAESTDLSETSPDE | soluble
3 | SLKIKHEHIESVLLALAAEKGQAWVANAITEEYLRQGGGELPLVPGKDWNNQQNIYHRWLKGETNAQREKIQKLIPAVLAILPRELRHRLCIFDTLERRALLAAQDALSTAIDAHDDAVQAVYRKAHFSGGGSPSDSVVVH | soluble
4 | SLKIKNILLSGGSGKRLWPLSRSLYPKQFLKLFDHKSLFELSFKRNASLVDETLIVCNEKHYFLALEEIKNEIKNKSVGFLLESLSKNTANAIALSALMSDKEDLLIVTPSDHLIKDLQAYENAIKKAIDLAQKGFLVTFGVSIDKPNTEFGYIESPNGLDVKRFIEKPSLDKAIEFQKSGGFYFNSGMFVFQAGVFLDELKKHAPTILKGCERAFESLENAYFFEKKIARLSEKSMQDLEDMSIDIALMQQSHKIKMVELNAKWSDLGNFNALFEEAANEPKENVSLNQTPVFAKESENNLVFSHKVSALLGVENLAVIDTKDALLIAHKDKAKDLKALVNEVETNN | soluble
5 | SLKSLNHISLLCRSVEESISFYQNVLGFLPIRRPDSFDFDGAWLFGHGIGIHLLQSPEPEKLLKKTEINPKDNHISFQCESMEAVEKKLKEMEIEYVRAVVEEGGIQVDQLFFHDPDAFMIEICNCDSLPVIPLAGEMARSCSRLNIRQLVQPTQIHEG | soluble
6 | SLKVKAINLYTYKEPFKSPISTPKVKLTHRESLFTEIVTYSGETYYGECNAFLTNWYDKETILTVVNRLRQWIPQVLHKDMTSFDSWLPYLNQMNDAPAARSMVVMAVYQMYNDLHDFEVQYGATVSGLTNSQIETLLETRPKRIKLKWSTSLIKDLETIRLLNFDCDIAIDANESLTKPSFLQLANVNTSDIIYIEEPFKILEDLNDIDMSIFPRIAIDEKALSIEKIQSIIQQYPIQVVVLKPFRLGGIDRMLNAMKILKEKNIRFVVGGMYEFGLSRYFTAMLAKEGSYPGDITPHGYYFSNDIVETSGILKGGMIYFTPPKVKRSLLNKV | soluble
7 | SLLKLAIPKGRLEEKVMTYLKKTGVIFERESSILREGKDIVCFMVRPFDVPTYLVHGVADIGFCGTDVLLEKETSLIQPFFIPTNISRMVLAGPKGRGIPEGEKRIATKFPNVTQRYCESKGWHCRIIPLKGSVELAPIAGLSDLIVDITETGRTLKENNLEILDEIFVIRTHVVVNPVSYRTKREEVVSFLEKLQEVIEHDSNEQSRGEGGSHHHHHH | soluble
8 | SLLLLQSILITKIMVIQLILFFEYALASGFEDKNILKEGKMMFDTLLKQFLEIDKVISLLYKDFVDNYIDFKNLEIVKIKKENEIENKLKSLLKSENIDYALVVAPEDEDILYNLTKIIESYPVKNLGCSSEAIKIAGNKYLTYLAIKDAVKTPKTFPPKKYVVKKIDSCGGKFNLFDENFLIQEFIDGENLSVSLIVGKKIHPLSLNRQYIDKRGFVGGEVNINHKLKDKIFNEAIKAVKCINGLNGYVGVDVIVNNDGIYIIEINPRITTTIYGLKTNPSLAELLIKNANNEELKFKVKGEKFTIDK | not soluble
9 | SLMAGLPNSSNALQQWHHLFEAEGTKRSPQAQQHLQQLLRTGLPTRKHENWKYTPLEGLINSQFVSIAGEISPQQRDALALTLDSVRLVFVDGRYVPALSDATEGSGYEVSINDDRQGLPDAIQAEVFLHLTESLAQSVTHIAVKRGQRPAKPLLLMHITQGVAGEEVNTAHYRHHLDLAEGAEATVIEHFVSLNDARHFTGARFTINVAANAHLQHIKLAFENPLSHHFAHNDLLLAEDATAFSHSFLLGGAVLRHNTSTQLNGENSTLRINSLAMPVKNEVCDTRTWLEHNKGFCNSRQLHKTIVSDKGRAVFNGLINVAQHAIKTDGQMTNNNLLMGKLAEVDTKPQLEIYADDVKCSHGATVGRIDDEQIFYLRSRGINQQDAQQMIIYAFAAELTEALRDEGLKQQVLARIGQRLPGGAREGGSHHHHHH | soluble
10 | SLNTGEPAPVLSSPPPADVSTFLAFPSPEKLLRLGPKSSVLIAQQTDTSDPEKVVSAFLKVSSVFKDEATVRMAVQDAVDALMQKAFNSSSFNSNTFLTRLLVHMGLLKSEDKVKAIANLYGPLMALNHMVQQDYFPKALAPLLLAFVTKPNSALESSSFARHSLLQTLYKV | soluble
11 | SLPAPTQLFFPLIRNCELSRIYGTACYCHHKHLCCSSSYIPQSRLRYTPHPAYATFCRPKENWWQYTQGRRYASTPQKFYLTPPQVNSILKANEYSFKVPEFDGKNVSSILGFDSNQLPANAPIEDRRSAATCLQTRGMLLGVFDGHAGCACSQAVSERLFYYIAVSLLPHETLLEIENAVESGRALLPILQWHKHPNDYFSKEASKLYFNSLRTYWQELIDLNTGESTDIDVKEALINAFKRLDNDISLEAQVGDPNSFLNYLVLRVAFSGATACVAHVDGVDLHVANTGDSRAMLGVQEEDGSWSAVTLSNDHNAQNERELERLKLEHPKSEAKSVVKQDRLLGLLMPFRAFGDVKFKWSIDLQKRVIESGPDQLNDNEYTKFIPPNYHTPPYLTAEPEVTYHRLRPQDKFLVLATDGLWETMHRQDVVRIVGEYLTGMHHQQPIAVGGYKVTLGQMHGLLTERRTKMSSVFEDQNAATHLIRHAVGNNEFGTVDHERLSKMLSLPEELARMYRDDITIIVVQFNSHVVGAYQNQE | not soluble
12 | SLPTLVTTQASDIDGSTLLSSQKGSGLGDCDSDARWTWDGRRFVPTSTSTSGLCRLVAAGGAWELPTLVTEVKSSP | soluble
13 | SLQPYEKYLKLNSQKLRADQTDTERKLWQRINRDQLLGFRFNRQKPLLSYIVDFYCAKTKLIIELDGSQHYKPDYQEKDALRDAELNSLGFTVMRFSNDEVMREIEAVVEQIYLFLENVRTD | not soluble
14 | SLRITLEFTGEKNLILPIHYNYIVQGLLYDLMGDTDFAAFLHDVGFQYEKRRFKLFTFSRIEGEFQIVEKPNGQKKIIIKPPFKFTVASPLEEVIIDISKNILKREYCHFNGQKFTLNSLNIENPPIFKEKARIKFISPVVMYTTLRNGEKKYTYYYSPWDEKFSPLLLNNLVKKYELVYKIKPKNPHFKLIPLTEKEDRRYSKVIKYKNVYVKGWMGIYDVETTPELLELAYYTGLGAKNSQGFGCFEIIG | not soluble
15 | SLSARSSHLSQPVVKSVLVYRNGDPFYAGRRVVIHEKKVSSFEVFLKEVTGGVQAPFGAVRNIYTPRTGHRIRKLDQIQSGGNYVAGGQEAFKKLNYLDIGEIKKRPMEVVNT | soluble
16 | SLSGGKYVDSEGHLYTVPIREQGNIYKPNNKAMADELSEKQVYDAHTKEIDLVNRDPKHLNDDVVKIDFEDVIAEPEGTHSFDGIWKASFTTFTVTKYWFYREG | not soluble
17 | SLSKLMLRHKAKKIDHVAIAVLDLEQAIGYFSMMGFTLSDRMTTTGAHSAMHSAVMEAGPIKFVLLEGANETSQITRFINEYGPGPQHIAIEVENVESLCKELEKQGLDFSTKTIKGPELIQRFTVRCPNSGVMIEFIERNEEEGFSEQNVEDLFRQLEASDAYEG | soluble
18 | SLSTKNHFIFPTYVQMYPYSKDRPFLKQVREKLRYYGYKWLYQKQCSQLVDFLNTETQWQSLFTQDYYRTNTILTTFCDKRFSASERLTAITENLRLAEEKMGRSLCQQLLDQQHIVLTQLTEDLRLSLSINHIDPFEGYFSINIRNQNNERVYDSSFTFLSPNKLLIASIQGPSSDNAQELVKQATKALHGMRPMFMLVNGFKMLAEKWQCELVGIPHKAQGKYRLSARSKILFNYDEFWQENQGEYRHNYWQLPLHIERKQLEDIASKKRSMYRKRYEMLDQMALDIQQL | not soluble
19 | SLTGAVDKLTLIHYNDVYNIDANSKSEPIGGAARFCTAVRSFSHLNPLVLFSGDAFSPSMLSTFTKGEQMIPVLNTVGTHCAVFGNHDFDHGLDILNEWVEKTNFPWLMSNVVDNETGRPLGGGKITHIMHHNEVKVGLIGLVEKEWLDTLPTIDPNEVTYIDFIKAGNQLADELHNQGCDIIIALTHMRTPNDIELAKHSGHIDLILGGHDHVYEILNIDDTHVIKSGTDFRQFSKIGISLNRNQNGKININVEKVDVNSTKYSEDSELKNELKKYSETIESKMDEVLGTFAVELDGRFSAIRTSETNLGNWICDVALAATGADCVIINSGTFRSDQIHPAGPFTMRDLINIIPMQDPLIVLEVTGKILHQALENSVSTYPKLEGRFPQIAGMSFVFDPTKKAGERVEPKLIRLGDEWLNLEQTYTLCVKSYIYGGCDGYNMFKECRVLMDDDAAPELGLAIQNHFKAIDVRLGK | soluble
20 | SLTLNDKYPFTDEDQAIINSYKAVVDGVSALIGEHCEIVLHSLENIEHSAICIANGHNTNRQVGSPITDLALRSLRNMQSESVSKPYFTRAKGSVLMKSVTIAIRNKTQRIIGLLCININLDVPVSQFLQCFMLTEHTNETSSVNFANSVEDLVAQTIEKTIEEVNADRAVANNTKNRQIVLSLYEKGIFDIKDAINLVAERLDISRHTVYLYIRQIKQEQE | soluble
21 | SLTPDSTAGSLHIDCPTGLAGDMLLAALLDLGVPLEVIKAPLARLGLKDMVRLDVEETRSGGLRGRRLNVVGLEPDPPHRHWAEIRDRLQNSSLEPKLLQTVLAVFTALAEAEATVHAQTPESVHFHEVGAIDALVDVVGVCAAIHHLAPHRISCAPPPAGHGSVTTAHGLLPVPVPAVLELARAHQVPLRHDPSLPEGELTTPTGLALVSVLAERFTAPPLFTPSAIGIGLGHRRLDRPNLVRLCLGQGESATLDLEARWQPLVVQEAWIDDASAEDIAWLLDRLRQAGALDVACQSLLMKKGRAGVAVTALVSTEQAPQLRRTWFEAGPSIGLRERQQGRWLLPRRAGTLSTPWGVLTAKQVRRPDGHCTVKPEADALQRLSQASGCSVADLRAAAQAASFESEEPWTW | not soluble
22 | SLTTTDADWKPVADALGRSGKLGDNNTAYRINLPRNDLHITSYGVDIKPGLSLGGYAAFARYDNNETLLMGDLVITEEELPKVTDALQAHGIAQTALHKHLLQQDPPVWWTHIHGMGDAARLAQGLKAALDATTIGPPTPPPARQPPVDIDVAGVDQALGRKGTQDGGLMKYSIPRKDTIIEDGHVLPAVSLNLTTVINFQPVGRGRAAINGDFILIAPEVQEVIRAMRAGNITIVELHNHGLTEEPRLFYMHYWAVDDAVTLARALRPAMDATNLQS | not soluble
23 | SLVGYSAVSQPSPASFLLGPTLPPAPSIAFRLWRPYSMTARITSVEALPYRLPLTSKLAWGAHSALSAAEHVLVRVTLSDGSVGVAEATPRPTIYGETPGSVTAILQHLEPALLGLDIADEAALNRVRGSVAGNHTARGALDMALWEARAASRGQSLFDTLLGPHERVRVSFILGIAPPAEMLAEAERVVAAGVRCLKVKVGRHAAQDLQVIAELRRRYGDDVQLYADSNETLTLEQAPDVLAAMREAGLMYVEEPLPARDLRARAALHAAGVLPIVADDSCFTPADLERELDFDTFDVLNVKTARNGFTDGLQMLRRAAEHGKRGMVGSQASTGLGTLHAALLSTQAEVTEPCELSFVLKLGDDLLNRPIEFQDGWLNVPELREHRLDEDKLARYRI | soluble
24 | SLVTRVTLAPGVRVMVAPYPPFLLPLQGRLNCLYMRLRSPVVVPPGDSFSIELKVPFDIAVIASSKGRHTLIDFFPPGGVVPKMAVYGSNVEGLLCRFWRDEWRGPAASARLTIVNNADVQATVSRVVLPRRGLSMFYNPVTGGIAASPIRMSVRDIDSADVWLEEAEPGEGFIEVPLVERDRRLFEALGPLVPGRIAMIWGI | not soluble
